Data reported in US11306156.

Legend:
[1] = molecular target: tissue factor (TF) antigen (UniProt P13726); test: SPR, Fab captured on anti-penta His, TF injected, 1:1 fit
[2] = molecular target: tissue factor (TF) antigen (UniProt P13726); test: SPR; reference wild-type D3H44 Fab
[3] = molecular target: tissue factor (TF) antigen (UniProt P13726); test: SPR (ProteOn), Fab captured on anti-penta-His surface, TF injected, 1:1 fit
[4] = molecular target: tissue factor (TF) antigen (UniProt P13726); test: SPR (ProteOn), Fab captured on anti-penta-His surface, TF injected; reference wild-type D3H44 Fab
[5] = molecular target: tissue factor (TF) antigen (UniProt P13726); test: SPR, Fab captured on anti-penta-His, TF as analyte, 1:1 fit
[6] = molecular target: tissue factor (TF) antigen (UniProt P13726); test: SPR (ProteOn XPR36), Fab captured on anti-penta-His, TF injected, 1:1 fit; batch C (+)
[7] = molecular target: tissue factor (TF) antigen (UniProt P13726); test: SPR, against wild-type D3H44 Fab; batch C (+)
[8] = molecular target: tissue factor (TF) antigen (UniProt P13726); test: SPR (ProteOn XPR36), Fab captured on anti-penta His surface, TF injected as analyte, 1:1 model
[9] = molecular target: tissue factor (TF) antigen (UniProt P13726); test: SPR, same assay; reference wild-type D3H44 Fab
[10] = molecular target: tissue factor (TF) antigen (UniProt P13726); test: SPR (ProteOn XPR36), His-tagged Fab captured on anti-penta His, TF as analyte, 1:1 fit

Chain of tissue factor (TF) antigen (P13726 33-251 limits assumed): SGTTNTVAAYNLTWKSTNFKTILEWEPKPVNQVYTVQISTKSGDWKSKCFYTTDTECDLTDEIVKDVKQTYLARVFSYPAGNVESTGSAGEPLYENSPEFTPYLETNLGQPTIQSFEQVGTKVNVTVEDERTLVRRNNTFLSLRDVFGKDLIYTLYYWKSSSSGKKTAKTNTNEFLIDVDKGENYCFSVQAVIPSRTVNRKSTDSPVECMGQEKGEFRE

| Substance | Kd [1] | Change in KD with respect to wild type (-(log(KD design) - log(KD wt))) [2] | Kd [3] | Change in median values of KD of h1l1 Fab heterodimer compared to wild type (-(log(KD design)-log(KD wt))) [4] | Change in KD with respect to wild type (-(log(KD design) - log(KD wt))) [5] | Kd [5] | also measured |
| --- | --- | --- | --- | --- | --- | --- | --- |
| D3H44 Fab heterodimer, H L124R_Q179K / L V133G_S176D_T178E_T180E | 0.23 nM | -0.16 | – | – | – | – | – |
| D3H44 H1L1 Fab heterodimer of LCCA Set # 9362 (H1 L124R_D146N_Q179K; L1 V133G_S176D_T178E_T180E) | – | – | 0.16 nM | -0.01 | – | – | – |
| D3H44 Fab heterodimer, H L124R_S186K / L Q124E_V133G_S176D_T178D_T180E | 0.26 nM | -0.23 | – | – | -0.23 | 0.26 nM | – |
| D3H44 Fab heterodimer, H L124R_S186R / L V133G_S176D_T178D_T180E | 0.17 nM | -0.04 | – | – | -0.04 | 0.17 nM | – |
| D3H44 H1L1 Fab heterodimer of LCCA Sets # 9237, 9236, 9234, 9239, 9243 and 9240 (H1 L124E_L143D_K145T; L1 V133G_S176R_T178K) | – | – | 0.22 nM | -0.15 | – | – | – |
| H1L1 Fab heterodimer of LCCA Set # 9906 (D3H44 Fab; H1 S188G, L1 S176L) | – | – | – | – | – | – | Kd [6]: 0.11 nM; Change in median values of KD of h1l1 Fab heterodimer compared to wild type (-(log(KD design)-log(KD wt))) [7]: 0.14 |
| H1L1 Fab heterodimer of LCCA set 9214 (D3H44 Fab, H1 L124E_L143D_K145T, L1 Q124K_V133G_S176R_T178K) | – | – | – | – | – | – | Kd [8]: 0.19 nM; change in median KD of H1L1 Fab heterodimer compared to wild type (-(log(KD design)-log(KD wt))) [9]: -0.08 |
| D3H44 Fab heterodimer, H L124R_S186K / L V133G_S176D_T178D_T180E | 0.18 nM | -0.07 | – | – | -0.07 | 0.18 nM | – |
| D3H44 Fab heterodimer, H L124R_S186K / L V133G_S176D_T178E_T180E | 0.23 nM | -0.17 | – | – | -0.17 | 0.23 nM | – |
| H1L1 Fab heterodimer of LCCA Set # 9803 and 9804 (D3H44 Fab; H1 Q179R, L1 Q124E_S131T_T178F_T180E) | – | – | – | – | – | – | Kd [6]: 0.11 nM; Change in median values of KD of h1l1 Fab heterodimer compared to wild type (-(log(KD design)-log(KD wt))) [7]: 0.14 |
| H1L1 Fab heterodimer of LCCA Set # 9845 and 9846 (D3H44 Fab; H1 S186K, L1 Q124E_S131T_T178Y_T180E) | – | – | – | – | – | – | Kd [6]: 0.13 nM; Change in median values of KD of h1l1 Fab heterodimer compared to wild type (-(log(KD design)-log(KD wt))) [7]: 0.09 |
| D3H44 Fab heterodimer, H L124R_D146N_Q179K / L Q124E_V133G_S176D_T178E_T180E | 0.2 nM | -0.1 | – | – | -0.1 | 0.2 nM | – |
| H1L1 Fab heterodimer of LCCA Set # 9914 (D3H44 Fab; H1 S188L_V190F, L1 WT) | – | – | – | – | – | – | Kd [6]: 0.15 nM; Change in median values of KD of h1l1 Fab heterodimer compared to wild type (-(log(KD design)-log(KD wt))) [7]: 0.01 |
| D3H44 H1L1 Fab heterodimer of LCCA Set # 9344 (H1 L124R_A125R; L1 V133G_S176D_T178D) | – | – | 0.27 nM | -0.23 | – | – | – |
| D3H44 H1L1 Fab heterodimer of LCCA Set # 9185 (H1 L124E_L143D_K145M; L1 Q124K_V133G_S176R_T178R) | – | – | 0.13 nM | 0.09 | – | – | – |
| D3H44 Fab heterodimer, H1 P175C_C233S / L1 S162C_C214S (H1L1 Fab of LCCA Set # 9044) | – | – | – | – | – | – | Kd [10]: 0.18 nM |
| D3H44 Fab heterodimer, H1 F122C_C233S / L1 S121C_C214S (H1L1 Fab of LCCA Set # 9043) | – | – | – | – | – | – | Kd [10]: 0.16 nM |
| D3H44 H1L1 Fab heterodimer of LCCA Set # 9270 (H1 L124E_L143E_K145M; L1 Q124K_V133G_S176R_T178R) | – | – | 0.31 nM | -0.29 | – | – | – |
| D3H44 H1L1 Fab heterodimer of LCCA Set # 9538 (H1 L124R_S186R; L1 V133G_S176D_T178D_T180E) | – | – | 0.17 nM | -0.04 | – | – | – |
| D3H44 Fab heterodimer, H L124E_L143E_K145T / L Q124K_V133G_Q160K_S176R | 0.2 nM | -0.12 | – | – | -0.12 | 0.2 nM | – |
